Publication PMC8322138, “BRCA2 binding through a cryptic repeated motif to HSF2BP oligomers does not impact meiotic recombination” (Nature Communications, 2021)

Test system: BRCA2 (Flag-F9)
Assay: Co-immunoprecipitation of GFP-HSF2BP variants with Flag-BRCA2 F9
Type: cell-based, human
Conditions: transient HEK293T / stable HeLa, anti-GFP beads, immunoblot
Description: Expression constructs for producing point mutation and truncation variants of HS2BP and BRCA2 in human cells were engineered as described before[16] in the PiggyBac vectors by Gibson assembly. For transient expression into HEK293T cells plasmid DNA was transfected using calcium precipitation method or PEI transfection. For stable integration into HeLa cells, PiggyBac expression vectors were co-lipofected together with PiggyBac transposase plasmid (hyPBase[45]) with Lipofectamine 3000 (Thermo Fisher).
Cells were washed twice in ice-cold PBS and lysed in situ in NETT buffer (100 mM NaCl, 50 mM Tris pH 7.5, 5 mM EDTA pH 8.0, 0.5% Triton-X100) supplemented immediately before use with protease inhibitor cocktail (Roche) and 0.4 mg/ml Pefabloc (Roche) (NETT++); 450 µl NETT++ buffer was used per 145 mm dish ES cells, 1 ml for HeLa and HEK293T. After 5–10 min, cells were scraped off and collected in 1.5 ml microcentrifuge tubes; lysis was continued for additional 20–30 min on ice, then mixtures were centrifuged (15 min, 4 °C, 14,000 × g) and the supernatant (input) was added to washed anti-GFP beads (Chromotek). Beads and lysates were incubated 2–4 h at 4 °C while rotating, washed three times in NETT++ buffer and bound proteins were eluted by boiling in 2x Sample buffer. Immunoblotting was performed following standard procedures with the following antibodies: anti-GFP mAb (Roche, #11814460001), anti-GFP pAb (Abcam #ab290 and Invitrogen #A11122), anti-RAD51[46], anti-BRCA2 mAb Ab1 OP-95 (Millipore #OP95), anti-BRCA2 (Abcam #27976), anti-Flag (M2 antibody, Sigma, F3165 and F1804). For quantitative immunoblotting fluorescently labeled secondary antibodies were used: anti-mouse CF680 (Sigma #SAB460199), anti-rabbit CF770 (Sigma #SAB460215); membranes were scanned using Odyssey CLx imaging system (LI-COR).

Row | Molecule | binding to BRCA2 (co-precipitation) | also measured
1 | R200E: GFP-HSF2BP point mutant (protein, left off: GFP, end not stated, kept, GFP-HSF2BP point mutant) MGEAGAAEEACRHMGTKEEFVKVRKKDLERLTTEVMQIRDFLPRILNGEVLESFQKLKIVEKNLERKEQELEQLKMDCEHFKARLETVQADNIREKKEKLALRQQLNEAKQQLLQQAEYCTEMGAAACTLLWGVSSSEEVVKAILGGDKALKFFSITGQTMESFVKSLDGDVQELDSDESQFVFALAGIVTNVAAIACGEEFLVNSSRVLLDTILQLLGDLKPGQCTKLKVLMLMSLYNVSINLKGLKYISESPGFIPLLWWLLSDPDAEVCLHVLRLVQSVVLEPEVFSKSASEFRSSLPLQRILAMSKSRNPRLQTAAQELLEDLRTLEHNV | totally abolished binding | –
2 | E201A: GFP-HSF2BP point mutant (protein, left off: GFP, end not stated, kept, GFP-HSF2BP point mutant) MGEAGAAEEACRHMGTKEEFVKVRKKDLERLTTEVMQIRDFLPRILNGEVLESFQKLKIVEKNLERKEQELEQLKMDCEHFKARLETVQADNIREKKEKLALRQQLNEAKQQLLQQAEYCTEMGAAACTLLWGVSSSEEVVKAILGGDKALKFFSITGQTMESFVKSLDGDVQELDSDESQFVFALAGIVTNVAAIACGRAFLVNSSRVLLDTILQLLGDLKPGQCTKLKVLMLMSLYNVSINLKGLKYISESPGFIPLLWWLLSDPDAEVCLHVLRLVQSVVLEPEVFSKSASEFRSSLPLQRILAMSKSRNPRLQTAAQELLEDLRTLEHNV | did not impact BRCA2 binding | binding to BRCA2 (co-precipitation) (listed as E201): do not decrease binding
3 | M235T: GFP-HSF2BP point mutant (protein, left off: GFP, end not stated, kept, GFP-HSF2BP point mutant) MGEAGAAEEACRHMGTKEEFVKVRKKDLERLTTEVMQIRDFLPRILNGEVLESFQKLKIVEKNLERKEQELEQLKMDCEHFKARLETVQADNIREKKEKLALRQQLNEAKQQLLQQAEYCTEMGAAACTLLWGVSSSEEVVKAILGGDKALKFFSITGQTMESFVKSLDGDVQELDSDESQFVFALAGIVTNVAAIACGREFLVNSSRVLLDTILQLLGDLKPGQCTKLKVLMLTSLYNVSINLKGLKYISESPGFIPLLWWLLSDPDAEVCLHVLRLVQSVVLEPEVFSKSASEFRSSLPLQRILAMSKSRNPRLQTAAQELLEDLRTLEHNV | still weakly bound to BRCA2 | –
4 | N192R: GFP-HSF2BP point mutant (protein, left off: GFP, end not stated, kept, GFP-HSF2BP point mutant) MGEAGAAEEACRHMGTKEEFVKVRKKDLERLTTEVMQIRDFLPRILNGEVLESFQKLKIVEKNLERKEQELEQLKMDCEHFKARLETVQADNIREKKEKLALRQQLNEAKQQLLQQAEYCTEMGAAACTLLWGVSSSEEVVKAILGGDKALKFFSITGQTMESFVKSLDGDVQELDSDESQFVFALAGIVTRVAAIACGREFLVNSSRVLLDTILQLLGDLKPGQCTKLKVLMLMSLYNVSINLKGLKYISESPGFIPLLWWLLSDPDAEVCLHVLRLVQSVVLEPEVFSKSASEFRSSLPLQRILAMSKSRNPRLQTAAQELLEDLRTLEHNV | totally abolished binding | binding to BRCA2 (co-precipitation) (listed as N192): failed to co-precipitate
5 | G199D: GFP-HSF2BP point mutant (protein, left off: GFP, end not stated, kept, GFP-HSF2BP point mutant) MGEAGAAEEACRHMGTKEEFVKVRKKDLERLTTEVMQIRDFLPRILNGEVLESFQKLKIVEKNLERKEQELEQLKMDCEHFKARLETVQADNIREKKEKLALRQQLNEAKQQLLQQAEYCTEMGAAACTLLWGVSSSEEVVKAILGGDKALKFFSITGQTMESFVKSLDGDVQELDSDESQFVFALAGIVTNVAAIACDREFLVNSSRVLLDTILQLLGDLKPGQCTKLKVLMLMSLYNVSINLKGLKYISESPGFIPLLWWLLSDPDAEVCLHVLRLVQSVVLEPEVFSKSASEFRSSLPLQRILAMSKSRNPRLQTAAQELLEDLRTLEHNV | abolished binding | binding to BRCA2 (co-precipitation) (listed as G199): failed to co-precipitate
6 | Y238A: GFP-HSF2BP point mutant (protein, left off: GFP, end not stated, kept, GFP-HSF2BP point mutant) MGEAGAAEEACRHMGTKEEFVKVRKKDLERLTTEVMQIRDFLPRILNGEVLESFQKLKIVEKNLERKEQELEQLKMDCEHFKARLETVQADNIREKKEKLALRQQLNEAKQQLLQQAEYCTEMGAAACTLLWGVSSSEEVVKAILGGDKALKFFSITGQTMESFVKSLDGDVQELDSDESQFVFALAGIVTNVAAIACGREFLVNSSRVLLDTILQLLGDLKPGQCTKLKVLMLMSLANVSINLKGLKYISESPGFIPLLWWLLSDPDAEVCLHVLRLVQSVVLEPEVFSKSASEFRSSLPLQRILAMSKSRNPRLQTAAQELLEDLRTLEHNV | totally abolished binding | binding to BRCA2 (co-precipitation) (listed as Y238): failed to co-precipitate

Further lines, with some results ahead:

Row | binding to BRCA2 (co-precipitation) | Molecule | also measured
7 | totally abolished binding | N243H: GFP-HSF2BP point mutant (protein, left off: GFP, end not stated, kept, GFP-HSF2BP point mutant) MGEAGAAEEACRHMGTKEEFVKVRKKDLERLTTEVMQIRDFLPRILNGEVLESFQKLKIVEKNLERKEQELEQLKMDCEHFKARLETVQADNIREKKEKLALRQQLNEAKQQLLQQAEYCTEMGAAACTLLWGVSSSEEVVKAILGGDKALKFFSITGQTMESFVKSLDGDVQELDSDESQFVFALAGIVTNVAAIACGREFLVNSSRVLLDTILQLLGDLKPGQCTKLKVLMLMSLYNVSIHLKGLKYISESPGFIPLLWWLLSDPDAEVCLHVLRLVQSVVLEPEVFSKSASEFRSSLPLQRILAMSKSRNPRLQTAAQELLEDLRTLEHNV | binding to BRCA2 (co-precipitation) (listed as N243): failed to co-precipitate
8 | totally abolished binding | N239K: GFP-HSF2BP point mutant (protein, left off: GFP, end not stated, kept, GFP-HSF2BP point mutant) MGEAGAAEEACRHMGTKEEFVKVRKKDLERLTTEVMQIRDFLPRILNGEVLESFQKLKIVEKNLERKEQELEQLKMDCEHFKARLETVQADNIREKKEKLALRQQLNEAKQQLLQQAEYCTEMGAAACTLLWGVSSSEEVVKAILGGDKALKFFSITGQTMESFVKSLDGDVQELDSDESQFVFALAGIVTNVAAIACGREFLVNSSRVLLDTILQLLGDLKPGQCTKLKVLMLMSLYKVSINLKGLKYISESPGFIPLLWWLLSDPDAEVCLHVLRLVQSVVLEPEVFSKSASEFRSSLPLQRILAMSKSRNPRLQTAAQELLEDLRTLEHNV | binding to BRCA2 (co-precipitation) (listed as N239): failed to co-precipitate
9 | did not impact BRCA2 binding | K245T: GFP-HSF2BP point mutant (protein, left off: GFP, end not stated, kept, GFP-HSF2BP point mutant) MGEAGAAEEACRHMGTKEEFVKVRKKDLERLTTEVMQIRDFLPRILNGEVLESFQKLKIVEKNLERKEQELEQLKMDCEHFKARLETVQADNIREKKEKLALRQQLNEAKQQLLQQAEYCTEMGAAACTLLWGVSSSEEVVKAILGGDKALKFFSITGQTMESFVKSLDGDVQELDSDESQFVFALAGIVTNVAAIACGREFLVNSSRVLLDTILQLLGDLKPGQCTKLKVLMLMSLYNVSINLTGLKYISESPGFIPLLWWLLSDPDAEVCLHVLRLVQSVVLEPEVFSKSASEFRSSLPLQRILAMSKSRNPRLQTAAQELLEDLRTLEHNV | binding to BRCA2 (co-precipitation) (listed as K245): do not decrease binding
